assay: soluble on expression in E. coli; label from the status in PepcDB or PDB records

Sequence | soluble on expression in E. coli
MSRSGEFCPRCGDEIPEGTDERPELAGAGGQRNSEHVLCDACYFEEFDLVDAPDTIQVRVCSRCGAVHKGNRWVDIGAEDYTDIAVEQVSEALGIHVDAQSVAWQVAPEQLDKNNIRMHAEFSGVIRGTPVTEEVTVPVRISRQTCKRCGKIAGGSFASIVQVRADGRDPTDDERERAEEIAQEYVAAREETGDRNAFITETKSVDDGLDMKISTNQMGLGIAKRITAQLGGSYSDSRRLISEDEDGQELYRMTYAVRLPRYRQGEVIDPEDGDGPVLVRSVQGNLKGVRLATGEDYEASFEAGETPDARRLGFREDGQQTTLVAIEDERAVQVLDPETFESKTVPRPDYLDIDADEVPVLKSHAGLHILPAADADTDELEHHHHHH | soluble
MSLKVHGVILMNIEEWEEYRYVEAGIKESITLIEDPGLKKMVEHVCHSGGKRIRPIILLLVSEICSGSYSRSLNAALAVEMMHSASLIHDDLLDQGLVRRNLPSAPEKFGPSGALLCGDYLIAKSIAFISPYGEKVIQDFGKAGMDMAEGEVLDLKLEDESFGENDYFKCIYKKTASLFAISASIGAYTGGAEEELAERFSHFGNALGTAYQIVDDILEFLEVVEGKESKFTSETLPHIYMKSTSKEEALKKSIDCVKLHVAAAKETLETFRECPARDKLFQITDYITVDMLENLEGHHHHHH | soluble
MNLDYLKETYHLTKTESQILYYLDQQSTNAADLSIREVAKHCFSSPSSIIRLAKKLNLSGYNELIYKLKEAHFSQPIPFETAPSFETTNEFCRLLAKHKSHLFVILGHDFSRHLAAYISEVFNFHGIPSITTAYTHSINSQNNQNFLFIILSHSGEEKYLKETALLAKEKKHPIISFVGAKNSTLGRLADLVFSTDSYSPFSTSVAQPQMFFGQTLITFEALICAYLNHEDSIPISHKNK | not soluble
MGSDKIHHHHHHMLHLNLLQVFISVAENSSFTLAGSEMHRTQSAISMKIKRLEEILGVPVFERSGKSIELTKEGAIFLTHSRRILQLVDEAMSAVGAVRKSNVVRLGCVEDYAVRTIPKILVDFWVEHPDVHIEMGTGDSASLLDRLGDDFDVVLAEHPLNSGEGEVVCTDSLVWGASANHSPHLQEPIPVAFRSQGALERQWACSALNAAGRPWRLACLSAGIGTLQTAVDAGLAVGVFKASTLAGALNRLTPADNFPQLPDVEMALHVMNDGFSQPSIMQLVKKLRESLQRPQLAAAHE | not soluble
MGSDKIHHHHHHMILMRISIKGLGISGLYLYERLKQSGFDVTAFDVRRRDFYIPCAYATNFNLMKPFMSRIGIDFDNYVLFRSETITMSGENGSEIEFPSAGLVTFDRNGLQRDMMNRIEMETETKADLVVDATGISRSYLGRINGDLTYYTKEYLTDHVIHRDFYFLFLNRGVGYLWEFPLDRGHFHVGIGSIRRDDLNRIDRYNRIRITGRRIRMKPLFEVASIGNIVGIGESVGTVSPLTGEGILPSIESAELLYQAISDKSDPNEAIRLYLKKLNTSFSHYYKLSDFVRKVQTGKLLRPSNIRYASLITKDMKHFGIDFSLGKAVRALIQ | not soluble
MLQTLSTHLSSTSTSTTTPLLLLSKPFLSPSAKSQLSHSKPFNFPRTLKPISYYKPPMANILSKLGFGTRSPDPSTMDPTIPQGPDDDLPAPGQQFAQFGAGCFWGVELAFQRVPGVTKTEVGYTQGLLHNPTYEDVCTGTTNHNEVVRVQYDPKECSFDTLIDVLWARHDPTTLNRQGNDVGTQYRSGIYYYTPEQEKAAKESLERQQKLLNRKIVTEILPAKKFYRAEEYHQQYLAKGGRFGFMQSAEKGCNDPIRCYG | soluble
STKLLYLKPIQTGFPSDSDSRFVFSKLDSLSLRRQIPISISNSVLHSSLPAAKSLGLNVEVSESGMCSLNFRDEKTVTGAPELLCKTLYAWEAAISPHLAAERENATVEDSVVLQMIEKCLKEEMECGVKSEKSDLLCLVETAGGVASPGPSGTLQCDLYRPFRLPGILVGDGRLGGISGTIAAYESLKLRGYDIAAVVFEDHGLVNEVPLTSYLRNK | soluble
MSLGARELHAHLKGGAATVCRCWAVTRRDGTVFGFTDHDRDLTFEGRLFRAETGLTSSALQQTTGLSVDNAETVGALSHVSVTEADLLAGRFDGAEVLAWLVNWADVSERLLQFRGTLGEITHSGGRFRAELRGLTEALNQPQGRVYQRSCQAVLGDRACGFDLSAEEFATERAVETVVGRQSFSFEGLHSFPDRWFEQGRLVVMTGEAAGAMGVIKSDRRRGEVRTVELWEALGPQITVGDRVRLEAGCDRMAETCRLKFNNLRNFRGFPHLSGEDWLSAYPAATGTHDGGSLWEEGHHHHHH | soluble
MRSFDFAPLHRASIGFDQIADLMDRVMSSDVGQPSYPPYNIEKTAADAYRISIAVAGFAETDLSVEVKENALVISARKAADEAERTFLHRGIATRAFERRFTLADHVRVTGASHENGMLHIDLKREIPEALKPRRIEIASVKSADTPERIEAKAVN | not soluble
MSLKSSFYYHRTMLGDKDKYADLKQRITALYHKHKGRYGYRRMTVALKHLGVHHNHKLIAKLMKQLTLSAKIRRQKYRSYKGQQGKIAKNYLKRRFKASKPHKRWLTDITEFKVGDHKLYLSPILDCYNNEIVSYTLSRRPTYDLVSQMLDKALDKTGKHRHKTLMLHSDQGWHYQMKPFREMLKKHQIKQSMSRKGNCLDNALMEGFFGTLKCETIYIEKPKTIEALERQIHEYIHYYNHERIQLKLKGLSPVQYRTQSLKEGHHHHHH | not soluble
MLVWEELREKALNKIYHDKEIGYLDPDILGFLLAFYRNRNDVYTQSSCSGRITIVDAEMPWDRKNSTIIFKNHLRITEQDLEDVLSKNQVRRLWLIVQGPIIHIYAKNIETGWDILKIAREAGFKHSGILATNQKGVLVELRTGIRMVHLLRESNTERVDKDKIKTLVNVCNEVLARGKQKMNLLKDLLSSSSNNSMELGKNSKLKTPI | soluble
MATFNSYTVDEIREIVDPDHPETLLEQAKGWAEMADLLSEYGVLLEQRLELVEDSWTGDAARLYFDEVKRMQEYIEESAERATTNAGLWFLIGTLAGIAKHDVSYIHKLWKDLDNVTDAVGLGFILEAIGVDKAVEDFKRMPYDVASRQIMEATATAAEESYSQMRDFEEFKPPPDVDGSGPTLQSVSAVAPPGGAVSLPSTTIVSNAAMPPLGPVAMRPVVPGVIGSRPGMTSMPRPMMGPGHTVRPVIGQRTGESQQTKTPGRLIGRYGVVSATPDVDMRDPKASRIHYGGDDVNRGVIKNNDPQRAAEEARFKLEEEVLRLRERAFAHRADDLTPAHTQHVLPGIVGDDSGWDRKTHDPGPVAFEMRRRPDRDDDAWTVI | not soluble
MGSDKIHHHHHHACTGLLVGKKASTDGSVMISYAADSHSLYGEMYRWPAATWPKGAMLEVKEWDTGKPLGKIAQVENTYSVVGNMNEHQVAITESTFGGRHELVDTTGIMDYGSLIYIALQRSKSAREAIKVMTDLVKEYGYYSSGETFSIADKNEAWVMEMIGKGPGNKGAVWVAIRIPDDCISAHANQSRIQQIPFDDKENCIYSPDVVSFAREKGYFKGKDADFSFAKAYCPYDFSALRGCEARVWSFFRKYDTTMDQYTDFIKGDPSKEPMPLYVKPNRKLSVQDVQNGMRDHYEGTDLDMTKDAGAGSYKVPYRWRPMTFEVDGQEYTNERAIATQQTGFVIVPQMRNWLPDAIGGILWFAVDDADMAVFTPVYASVTDVPECYRVGNGDLLNFSWTSAFWIHNWVANMAYHKYSFMIQDIRKVQQELENGYQETVPAIDKAAQELYAKDPAETVKFLTWYSTTNSDSATARWKQLGEYLLVKYIDGNVKKEVNGQFKRNPYGQPASPDFPGYDEDYYRSIVKSAGDRLKVK | not soluble
MSLTRKKEDPGHSGRADRAARLSKASTHHAQHRQQPQRTRHERPRHAGHVAGKLYQLEVSEALISSVTDAVLDNVHAWQSRPLAAQRAENQRLIPD | soluble
GPGSMNQLVVFLDIDNTLYSGEEYHSLAEQIRDGLVEYVGNWLQLTPQESEAYVVHCFEKYGLTIAGLMHEQKGFDAEAATDFLYSHCDFSHLQENPRLREMLSRLRRNHHLYFFTNASRRHATTVLQALGLSSDEFRMSGFTYEDQWAQTAPVPCNKPMRNAYIAVIKVLKKWLQDAEWVTAECMVMVDDSACNLIEPLALGLNAVWVSHGHPISDVLAEKMNTGRLFCITDIIELEDIIKQITINREN | soluble
MGHHHHHHSHMVPGGKPILCPRRTTAQLGPRRNPAWSLQAGRLFSTQTAEDKEEPLHSIISSTESVQGSTSKHEFQAETKKLLDIVARSLYSEKEVFIRELISNASDALEKLRHKLVSDGQALPEMEIHLQTNAEKGTITIQDTGIGMTQEELVSNLGTIARSGSKAFLDALQNQAEASSKIIGQFGVGFYSAFMVADRVEVYSRSAAPGSLGYQWLSDGSGVFEIAEASGVRTGTKIIIHLKSDCKEFSSEARVRDVVTKYSNFVSFPLYLNGRRMNTLQAIWMMDPKDVREWQHEEFYRYVAQAHDKPRYTLHYKTDAPLNIRSIFYVPDMKPSMFDVSRELGSSVALYSRKVLIQTKATDILPKWLRFIRGVVDSEDIPLNLSRELLQESALIRKLRDVLQQRLIKFFIDQSKKDAEKYAKFFEDYGLFMREGIVTATEQEVKEDIAKLLRYESSALPSGQLTSLSEYASRMRAGTRNIYYLCAPNRHLAEHSPYYEAMKKKDTEVLFCFEQFDELTLLHLREFDKKKLISVETDIVVD | soluble
MKVGFFLLKFPLSSETFVLNQITAFIDMGFEVEIVALQKGDTQNTHVAWTKYNLAARTRWLQDEPTGKVAKLRHRASQTLRGIHRKNTWQALNLKRYGAESWNLILSAICGQVATPFRADVFIAHFGPAGVTAAKLRELGVIHGKIATIFHGIDISSREVLNHYTPEYQQLFRRGDLMLPISDLWAGRLQKMGCPREKIAVSRMGVDMTRFSPRPVKAPATPLEIISVARLTEKKGLHVAIEACRQLKEQGVAFRYRILGIGPWERRLRTLIEQYQLEDVVEMPGFKPSHEVKAMLDDADVFLLPSVTGADGDMEGIPVALMEAMAVGIPVVSTLHSGIPELVEADKSGWLVPENDARALAQRLAAFSQLDTDELAPVVKRAREKVEHDFNQQVINRELASLLQAL | not soluble
MWKTASDKGLGHLLRDVWSLLNEEERELLDKEIQPFPCKKASTVFSEGDIPNNLFYLYEGKIKILREGVYGRFHISRIVKPGQFFGMRPYFAEETCSSTAIAVENSKVLAIPVEAIEALLKGNTSFCRYFLKALAKELGYAERRTVTLTQKHVRGRLAETLLILKENFGFENDGATLSIYLSREELATLSNMTVSNAIRTLSTFVSERMLALDGKRIKIIDCDRLQKTARSG | soluble
MPNPRRIVFGDVHGHFDALTALFEAIAPNERDGVYFVGDLIDRGPESAKVVDFVMENKYHCLLGNHEQMMLDAVGGFNFSPQLLHAWIYSGGKSTLESYEHQIPQSHVDWMRNLPLYLDLGDVWLVHAGVDPRLPIEEQGEAQFCWIRDEFHRYPYPYFANKLIITGHTITFTFANVEPGKLVSGPGWLDIDTGAYHPKSGWLTALELNNQEVYQAHIFTNEVRRLPLEDAVVPLPPQNLHRLEHHHHHH | not soluble
MNDDALPVHSTDLLDFDEDFIKIDAAICEYDSVGHAPQRKGESAFQWASVETACLALLKKAKDVRVAIWYLRACIARRGLSGLADGVRLLAELMSAPVEELHPRALPDESPGETLLIHLGWLAGPQFLHQLGSSRFEDRDATLNDLIGGRAAAIVEDRDYCVRANTLVHDIKDSLSRIRESVAVVEQELNLSRSLDLLSVAASRLARTDAGRAESESVAGEKPAHAEAGFSPAPDPQQPAAGPGGALRSRQEVGVALERIVEYFRLHEPSHPAPIFLSRIQRMLGAGFEEVMAELYPEAASLVAQLNRPQSSIK | not soluble

Source: the DeepSol protein solubility set
